For data set [1], the target named is T1, MgrA (Staphylococcus aureus XN108) (UniProt P0C1S0).
T1 sequence: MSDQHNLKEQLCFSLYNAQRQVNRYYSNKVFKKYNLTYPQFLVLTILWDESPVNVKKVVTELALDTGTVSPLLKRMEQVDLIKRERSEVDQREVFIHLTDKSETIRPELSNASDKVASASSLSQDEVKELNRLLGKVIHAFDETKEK
As to the kind of experiment: EMSA. To be noted: EMSA: 20 mM Hepes pH 7.6, 1 mM EDTA, 10 mM (NH4)2SO4, 30 mM KCl, 1 mM DTT, 0.2% (w/v) Tween-20, 10 uL, room temperature 1 min; 4% native PAGE. Background: A gel shift assay detects complexes by their altered migration in electrophoresis.

Data set [2] has as its target T2, MgrA C12S C12S (Staphylococcus aureus XN108 mgrAC12S mutant) (UniProt P0C1S0).
T2 sequence: T1 sequence with C12S
In words: EMSA. Particulars: EMSA: 20 mM Hepes pH 7.6, 1 mM EDTA, 10 mM (NH4)2SO4, 30 mM KCl, 1 mM DTT, 0.2% (w/v) Tween-20, 10 uL, room temperature 1 min; 4% native PAGE.

Residue numbers refer to the chain shown, from its start.

Our source for the binding values is article PMC10120478.

Turning to “GTCACACTCCATGCCATTGAGTTGTAATATATCTTTTTTAGGTATAAATGTTGTCGAATAAACAACAAGTTGTCCAAAAGATATAAATCTAAACAAGATATAGCCAGCAATTTAATATTTGTAATAGATAAAATGCTAAGTTTGATATATAATAAATTTAAGTAATTGTATAATAATATGAATTACAAACATCTAAGAAGAAACATAGGAGGCATCA (double strand) [psarV (sarV promoter probe)]”, the binding result was “binds” in data set [1] and “binds more weakly” in data set [2].
Taken in the same sequence, the figures for “GTTCGACATACCCAATGCCAAAAACATACCTATTGAAATTGACAAAATTCCAATACTAACTTTTCTAATTGAATAGCGTACTTTACTTTGTTGTTTATTCATGATGAAACACTCCTTACAATAATATACAAACATTATAACATAGTGCGCTATATATTTTAATTAAAATTTTCTTTGTTTTATAAAGCTATTGTAGGAGGTAAAATAATTAACTTGTCTTTCCAAAATATGAAAAGTGTACTAAAATTCATCGCACGACAAATAGCCCATTTCCGATACTT (double strand) [plytN (lytN promoter probe)]” were “binds” and “binds more weakly”.
